According to PMC3420232:

Columns and labels:
[1] = molecular target: TNFR1-TRAILR2-Fas chimeric receptor (TM2) (human) (UniProt P19438); assay: radioligand binding; equilibrium (saturation) binding on cells: 2x10^5 murine fibroblasts expressing the receptor in PFA (PBS, 2% FCS, 0.002% sodium azide), 125I-TNF 0.25-12.5 ng/ml, 2 h on ice; non-specific binding with 200-fold excess of unlabeled protein; cells spun through phthalate oil; one site binding hyperbola; 51 kDa used for TNF; apparent
[2] = molecular target: TNFR1-TRAILR1-Fas chimeric receptor (TM1) (human) (UniProt P19438); assay: as above
[3] = molecular target: TRAILR2-Fas chimeric receptor (human) (UniProt O14763); assay: radioligand binding; competition on cells: 4x10^5 murine fibroblasts expressing the (chimeric) TRAIL receptor in PFA (PBS, 2% FCS, 0.002% sodium azide), 83 ng/ml 125I-TRAIL with or without unlabeled recombinant human TRAIL (83-5300 ng/ml), 4 hours on ice; cells spun through phthalate oil; 68 kDa used for TRAIL
[4] = molecular target: TRAILR1-Fas chimeric receptor (human) (UniProt O00220); assay: as above

125I-labeled recombinant human TNF (from UniProt P01375 77-233) (ligand)
Kd [1]: 71 nM
Kd [2]: 225 nM

Flag-tagged recombinant human TRAIL (sTRAIL), unlabeled (from UniProt P50591 95-281) (ligand)
IC50 [3]: 5.5 nM
IC50 [4]: 16.8 nM
